Measurements as given in PMC1277818, “Substrate specificity analysis of protein kinase complex Dbf2-Mob1 by peptide library and proteome array screening” (BMC Biochemistry, 2005).

T1: FHHDbf2-H6Mob1TM9 (Saccharomyces cerevisiae, UniProt P22204+P40484)
T1 construct: made in house; host or cells: Hi5 insect cells (baculovirus)
T1 sequence (P22204 1-572): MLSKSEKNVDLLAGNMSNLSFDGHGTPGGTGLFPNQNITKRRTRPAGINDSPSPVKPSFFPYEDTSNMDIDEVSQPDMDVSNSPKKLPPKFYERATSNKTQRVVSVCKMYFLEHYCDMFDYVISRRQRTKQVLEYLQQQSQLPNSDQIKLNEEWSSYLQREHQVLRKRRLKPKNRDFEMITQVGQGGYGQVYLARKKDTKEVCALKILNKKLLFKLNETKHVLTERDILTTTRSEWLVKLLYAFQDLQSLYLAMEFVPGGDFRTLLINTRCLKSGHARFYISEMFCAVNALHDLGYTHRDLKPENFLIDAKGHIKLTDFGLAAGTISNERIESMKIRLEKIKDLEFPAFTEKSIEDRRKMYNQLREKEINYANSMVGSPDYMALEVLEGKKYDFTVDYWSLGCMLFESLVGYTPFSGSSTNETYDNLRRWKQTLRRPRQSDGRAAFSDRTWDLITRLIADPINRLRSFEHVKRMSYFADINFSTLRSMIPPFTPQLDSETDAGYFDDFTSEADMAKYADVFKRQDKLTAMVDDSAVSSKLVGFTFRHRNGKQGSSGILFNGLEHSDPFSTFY
T1 sequence (P40484 1-314 partner): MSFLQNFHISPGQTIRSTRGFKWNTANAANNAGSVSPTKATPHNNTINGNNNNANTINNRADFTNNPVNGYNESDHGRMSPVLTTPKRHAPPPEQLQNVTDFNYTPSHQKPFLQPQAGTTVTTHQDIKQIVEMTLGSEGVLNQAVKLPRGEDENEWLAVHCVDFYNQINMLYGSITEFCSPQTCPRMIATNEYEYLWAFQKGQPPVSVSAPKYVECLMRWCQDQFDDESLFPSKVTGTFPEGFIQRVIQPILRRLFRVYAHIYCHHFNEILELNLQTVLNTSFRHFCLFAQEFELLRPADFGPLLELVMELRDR

B1: YLR303W: GST fusion yeast protein on proteome chip (protein, UniProt P06106 2-444, looked up)
Homocysteine/cysteine synthase: PSHFDTVQLHAGQENPGDNAHRSRAVPIYATTSYVFENSKHGSQLFGLEVPGYVYSRFQNPTSNVLEERIAALEGGAAALAVSSGQAAQTLAIQGLAHTGDNIVSTSYLYGGTYNQFKISFKRFGIEARFVEGDNPEEFEKVFDERTKAVYLETIGNPKYNVPDFEKIVAIAHKHGIPVVVDNTFGAGGYFCQPIKYGADIVTHSATKWIGGHGTTIGGIIVDSGKFPWKDYPEKFPQFSQPAEGYHGTIYNEAYGNLAYIVHVRTELLRDLGPLMNPFASFLLLQGVETLSLRAERHGENALKLAKWLEQSPYVSWVSYPGLASHSHHENAKKYLSNGFGGVLSFGVKDLPNADKETDPFKLSGAQVVDNLKLASNLANVGDAKTLVIAPYFTTHKQLNDKEKLASGVTKDLIRVSVGIEFIDDIIADFQQSFETVFAGQKP
modifications: GST tag
notes: GST fusion yeast protein on proteome chip
B2: YBL024W: GST fusion yeast protein on proteome chip (protein, UniProt P38205 1-684, looked up)
Multisite-specific …: MARRKNFKKGNKKTFGARDDSRAQKNWSELVKENEKWEKYYKTLALFPEDQWEEFKKTCQAPLPLTFRITGSRKHAGEVLNLFKERHLPNLTNVEFEGEKIKAPVELPWYPDHLAWQLDVPKTVIRKNEQFAKTQRFLVVENAVGNISRQEAVSMIPPIVLEVKPHHTVLDMCAAPGSKTAQLIEALHKDTDEPSGFVVANDADARRSHMLVHQLKRLNSANLMVVNHDAQFFPRIRLHGNSNNKNDVLKFDRILCDVPCSGDGTMRKNVNVWKDWNTQAGLGLHAVQLNILNRGLHLLKNNGRLVYSTCSLNPIENEAVVAEALRKWGDKIRLVNCDDKLPGLIRSKGVSKWPVYDRNLTEKTKGDEGTLDSFFSPSEEEASKFNLQNCMRVYPHQQNTGGFFITVFEKVEDSTEAATEKLSSETPALESEGPQTKKIKVEEVQKKERLPRDANEEPFVFVDPQHEALKVCWDFYGIDNIFDRNTCLVRNATGEPTRVVYTVCPALKDVIQANDDRLKIIYSGVKLFVSQRSDIECSWRIQSESLPIMKHHMKSNRIVEANLEMLKHLLIESFPNFDDIRSKNIDNDFVEKMTKLSSGCAFIDVSRNDPAKENLFLPVWKGNKCINLMVCKEDTHELLYRIFGIDANAKATPSAEEKEKEKETTESPAETTTGTSTEAPSAAN
modifications: GST tag
notes: as for B1
B3: YFR033C: GST fusion yeast protein on proteome chip (protein, UniProt P00127 1-147, looked up)
Cytochrome b-c1 complex …: MGMLELVGEYWEQLKITVVPVVAAAEDDDNEQHEEKAAEGEEKEEENGDEDEDEDEDEDDDDDDDEDEEEEEEVTDQLEDLREHFKNTEEGKALVHHYEECAERVKIQQQQPGYADLEHKEDCVEEFFHLQHYLDTATAPRLFDKLK
modifications: GST fusion
notes: as for B1
B4: YML035C: GST fusion yeast protein on proteome chip (protein, UniProt P15274 1-810, looked up)
AMP deaminase: MDNQATQRLNDLSLEPAPSHDEQDGSGLVIDIDQRKIGDEQAGVVVDDETPPLEQQDSHESLAADSRNANFSYHENQQLLENGTKQLALDEHDSHSAILEQPSHSTNCSSSNIAAMNKGHDSADHASQNSGGKPRTLSASAQHILPETLKSFAGAPVVNKQVRTSASYKMGMLADDASQQFLDDPSSELIDLYSKVAECRNLRAKYQTISVQNDDQNPKNKPGWVVYPPPPKPSYNSDTKTVVPVTNKPDAEVFDFTKCEIPGEDPDWEFTLNDDDSYVVHRSGKTDELIAQIPTLRDYYLDLEKMISISSDGPAKSFAYRRLQYLEARWNLYYLLNEYQETSVSKRNPHRDFYNVRKVDTHVHHSACMNQKHLLRFIKHKLRHSKDEKVIFRDGKLLTLDEVFRSLHLTGYDLSIDTLDMHAHKDTFHRFDKFNLKYNPIGESRLREIFLKTNNYIKGTYLADITKQVIFDLENSKYQNCEYRISVYGRSLDEWDKLASWVIDNKVISHNVRWLVQIPRLYDIYKKTGIVQSFQDICKNLFQPLFEVTKNPQSHPKLHVFLQRVIGFDSVDDESKVDRRFHRKYPKPSLWEAPQNPPYSYYLYYLYSNVASLNQWRAKRGFNTLVLRPHCGEAGDPEHLVSAYLLAHGISHGILLRKVPFVQYLYYLDQVGIAMSPLSNNALFLTYDKNPFPRYFKRGLNVSLSTDDPLQFSYTREPLIEEYSVAAQIYKLSNVDMCELARNSVLQSGWEAQIKKHWIGKDFDKSGVEGNDVVRTNVPDIRINYRYDTLSTELELVNHFANFKRTIEEK
modifications: GST tag
notes: as for B1
B5: YLR007W: GST fusion yeast protein on proteome chip (protein, UniProt Q07913 1-336, looked up)
Non-structural maintenance of …: MEVHEEQVSAPVTGDATAKYLLQYILSARGICHENALILALMRLETDASTLNTEWSIQQWVDKLNDYINAINVKLNLLGYKIIRINHGIGRNAVTLKAKQNFESFEDNTAIRAHNNDYAVLQSIVLPESNRFFVYVNLASTEETKLATRFNQNEIEFMKWAIEQFMISGETIVEGPALETSIIVKEVNRILVAATGDSNLAKWRKFSTFTVGSTNLFQFQELTATDIEDLLLRLCELKWFYRTQEGKFGIDLRCIAELEEYLTSMYNLNTCQNCHKLAIQGVRCGNESCREENEETGENSLSQIWHVDCFKHYITHVSKNCDRCGSSLITEGVYVI
modifications: GST tag
notes: as for B1
B6: YGL105W: GST fusion yeast protein on proteome chip (protein, UniProt P46672 1-376, looked up)
tRNA-aminoacylation cofactor …: MSDLVTKFESLIISKYPVSFTKEQSAQAAQWESVLKSGQIQPHLDQLNLVLRDNTFIVSTLYPTSTDVHVFEVALPLIKDLVASSKDVKSTYTTYRHILRWIDYMQNLLEVSSTDKLEINHDLDLPHEVIEKKKKAPAGGAADAAAKADEDVSKKAKKQDHPRGKPDEETLKKLREEAKAKKAAKKAANAKQQQEQQNKAPEKPKPSAIDFRVGFIQKAIKHPDADSLYVSTIDVGDEEGPRTVCSGLVKHFPLDAMQERYVVVVCNLKPVNMRGIKSTAMVLCGSNDDKVEFVEPPKDSKAGDKVFFEGFGDEAPMKQLNPKKKIWEHLQPHFTTNDGLEVIFKDEEEKDHPVRKLTNAKGESFKVASIANAQVR
modifications: GST fusion
notes: as for B1
B7: YLL008W: GST fusion yeast protein on proteome chip (protein, UniProt P32892 1-752, looked up)
ATP-dependent RNA helicase …: MVVGTKKYSNLDFVPTISDSEDDVPILDSSDDEKVEAKKTTKKRKGKNNKKKVSEGDNLDEDVHEDLDAGFKFDLDADDTTSNFQGWNFLAEGESNKDDAEAFVKKDVDLDKIIRRKGGLVKMAHIDSKQEEETEKEKVEKENDSDDEELAMDGFGMGAPMNNGDENQSEEEEEEEEKEEEEEEEEEQEEMTLEKGGKDDEIDEEDDSEEAKADFYAPETEGDEAKKQMYENFNSLSLSRPVLKGLASLGYVKPSPIQSATIPIALLGKDIIAGAVTGSGKTAAFMIPIIERLLYKPAKIASTRVIVLLPTRELAIQVADVGKQIARFVSGITFGLAVGGLNLRQQEQMLKSRPDIVIATPGRFIDHIRNSASFNVDSVEILVMDEADRMLEEGFQDELNEIMGLLPSNRQNLLFSATMNSKIKSLVSLSLKKPVRIMIDPPKKAATKLTQEFVRIRKRDHLKPALLFNLIRKLDPTGQKRIVVFVARKETAHRLRIIMGLLGMSVGELHGSLTQEQRLDSVNKFKNLEVPVLICTDLASRGLDIPKIEVVINYDMPKSYEIYLHRVGRTARAGREGRSVTFVGESSQDRSIVRAAIKSVEENKSLTQGKALGRNVDWVQIEETNKLVESMNDTIEDILVEEKEEKEILRAEMQLRKGENMLKHKKEIQARPRRTWFQSESDKKNSKVLGALSRNKKVTNSKKRKREEAKADGNGARSYRKTKTDRIADQERTFKKQKSTNSNKKKGFKSRR
modifications: GST tag
notes: as for B1
B8: YGR264C: GST fusion yeast protein on proteome chip (protein, UniProt P00958 2-751, looked up)
Methionine--tRNA ligase, …: SFLISFDKSKKHPAHLQLANNLKIALALEYASKNLKPEVDNDNAAMELRNTKEPFLLFDANAILRYVMDDFEGQTSDKYQFALASLQNLLYHKELPQQHVEVLTNKAIENYLVELKEPLTTTDLILFANVYALNSSLVHSKFPELPSKVHNAVALAKKHVPRDSSSFKNIGAVKIQADLTVKPKDSEILPKPNERNILITSALPYVNNVPHLGNIIGSVLSADIFARYCKGRNYNALFICGTDEYGTATETKALEEGVTPRQLCDKYHKIHSDVYKWFQIGFDYFGRTTTDKQTEIAQHIFTKLNSNGYLEEQSMKQLYCPVHNSYLADRYVEGECPKCHYDDARGDQCDKCGALLDPFELINPRCKLDDASPEPKYSDHIFLSLDKLESQISEWVEKASEEGNWSKNSKTITQSWLKDGLKPRCITRDLVWGTPVPLEKYKDKVLYVWFDATIGYVSITSNYTKEWKQWWNNPEHVSLYQFMGKDNVPFHTVVFPGSQLGTEENWTMLHHLNTTEYLQYENGKFSKSRGVGVFGNNAQDSGISPSVWRYYLASVRPESSDSHFSWDDFVARNNSELLANLGNFVNRLIKFVNAKYNGVVPKFDPKKVSNYDGLVKDINEILSNYVKEMELGHERRGLEIAMSLSARGNQFLQENKLDNTLFSQSPEKSDAVVAVGLNIIYAVSSIITPYMPEIGEKINKMLNAPALKIDDRFHLAILEGHNINKAEYLFQRIDEKKIDEWRAKYGGQQV
modifications: GST tag
notes: as for B1

Target: T1, FHHDbf2-H6Mob1TM9
Experiment: Yeast proteome chip assay
Type: biochemical
Details: Table 3; GST fusion proteins on proteome chip, [γ-33P]ATP, chips in duplicate, computer analysis
Procedure, shortened: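 GST-tagged yeast proteins (~4,400 strains) spotted on proteome microarrays, probed in duplicate with FHHDbf2-H6Mob1TM9 in DKB plus [γ-33P]ATP; kinase-dead Dbf2(N305A) and kinase-free buffer served as controls. Positives: 3 of 4 spots ≥2 SD above background, fourth ≥1.5 SD.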

| Molecule | Slide Signal (after normalization) |
| --- | --- |
| B1 | 0.0985 |
| B2 | 0.1294 |
| B3 | 0.042 |
| B4 | 0.1384 |
| B5 | 0.0988 |
| B6 | 0.1332 |
| B7 | 0.0702 |
| B8 | 0.1328 |
